The Kd is a measure of binding affinity in units of concentration. Lower therefore signals a tighter complex.

The values that follow come from patent publication US11890352B2, “Plectin-targeted liposomes/PARP inhibitor in the treatment of cancer” (University of Virginia Patent Foundation, priority 2018, dated 2024).

For data set [1] the following is noted: cited from earlier work.
The subject of the next data set is pancreatic cancer. To be noted: clinical study; cited from earlier work.
The conditions of data set [2]: unlabeled liposomes; cited from earlier work.
Data set [3] deals with T1, cell surface plectin on ovarian cancer cells (SKOV3, OVCAR8) (human, UniProt Q15149 1-4684).
T1 construct: whole, on cells; Endogenous plectin mislocalized to the cell surface; also called Plectin-1
Nature of the data set: cell binding assay on FT132 cells (healthy fallopian tube cells), DiR fluorescence at 780 nm, 1 h at 37 C. On the procedure: (§1) FT 132, SKOV3 and OVCAR8 cells were plated in triplicate in a 96 well black plate at a concentration of 5000 cells per well. After 48 h, liposomes at concentrations ranging from […] were incubated with the three cell lines after washing the wells with PBS buffer for 1 h at 37° C. The cells were later washed with PBS and liposomal DiR intensity was measured using a fluorescent plate reader (FLUOstar omega, BMG Labtech Inc. Cary, NC). PTP liposomal binding to the three cell lines was compared with liposomes containing no peptide (background binding) and with NCP (non-specific binding). Background binding by the no peptide liposomes was subtracted from both the non-specific (NCP) and PTP liposomes. To obtain specific binding of PTP liposomes, we subtracted non-specific (NCP) binding from the total binding by the PTP liposomes.
(§2) Figure 2B: Figure 3A: FIGS. 3A-C. PTP liposomes bind to SKOV3 and OVCAR8 cells. Cell binding assay (ELISA) was carried out to assess PTP liposome association to cell surface plectin on SKOV3 and OVCAR8 cells. Liposomes (No Pep, NCP and PTP) at varying concentrations were incubated with FT132, SKOV3 and OVCAR8 cells for 1 h at 37° C. […] NCP binding was subtracted from PTP liposomes to determine specific binding of PTP liposomes to A) FT132, B) SKOV3 and C) OVCAR8 cells for 1 h at 37° C. followed by quantification of DiR using fluorescent plate reader.

Data set [4] concerns the target T2, recombinant his-tagged C-terminus fragment of plectin (4379-4684 aa) (human, UniProt Q15149 4379-4684).
T2 construct: range 4379-4684; also called his-tagged plectin fragment; c-terminus fragment of plectin (4379-4384 aa); not shown: his tag
T2 sequence (looked up): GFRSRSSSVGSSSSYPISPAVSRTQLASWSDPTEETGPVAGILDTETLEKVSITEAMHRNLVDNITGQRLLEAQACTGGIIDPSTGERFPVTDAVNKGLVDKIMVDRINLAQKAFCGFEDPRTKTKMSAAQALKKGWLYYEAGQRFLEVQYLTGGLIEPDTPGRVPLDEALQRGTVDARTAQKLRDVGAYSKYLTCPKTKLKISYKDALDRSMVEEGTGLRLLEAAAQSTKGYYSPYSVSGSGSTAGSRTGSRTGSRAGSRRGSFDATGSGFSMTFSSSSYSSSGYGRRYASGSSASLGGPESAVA
Nature of the data set: BLI (ForteBio Octet), his-tagged plectin C-terminus fragment loaded on anti-His sensors, liposomes in solution. The method, then: Biolayer Interferometry (BLI) to Study PTP-Liposomes Binding to C-Terminus Fragment of Plectin Biolayer interferometry (BLI) was performed using ForteBio octect Red 96 system (ForteBio, Menlo Park, CA), we used recombinant C-terminus fragment of plectin (4379-4684 aa). All BLI assays were performed in black 96 well plates (Nunc F96 Micro Well plates, Thermo Fisher, Waltham, MA). The total working volume for samples or buffer was 0.2 mL per well and the rpm setting for each equilibration and loading steps was set at 1000 rpm. The association and dissociation step with C-terminus fragment of plectin and peptide-liposomes was carried out at 600 rpm. Prior to each assay, anti-his biosensor tips were pre-wetted in 0.2 mL PBS for at least 10 min followed by equilibrium with PBS for 100 seconds. Anti-his biosensors were then non-covalently loaded with his-tagged C-terminus fragment ([…]) (100 sec). Subsequently, association with No peptide, NCP (Negative Control Peptide) and PTP liposomes (40 mM) (300 sec) was be carried out. Finally, the dissociation was monitored in PBS for 600 sec.
Figure 2A: FIGS. 2A-B described plectin-targeted peptide (PTP) liposomes binding to Plectin. A) PTP peptide was conjugated to DSPE-PEG-MALEIMIDE via the thiol present on the C-terminus of the peptide. […]
For orientation: In BLI a coated tip is dipped into the sample, and binding shifts an interference pattern.

Data set [5] has as its target T1, cell surface plectin on ovarian cancer …. Kind of data set: cell binding assay on SKOV3 cells; DiR fluorescence; NCP and no-peptide liposome binding subtracted; SKOV3 cells. The method, then: as §1, §2
The target is the same in data set [6]. Nature of the data set: cell binding assay on OVCAR8 cells; DiR fluorescence; NCP and no-peptide liposome binding subtracted; OVCAR8 cells. The method, then: as §1, §2
For data set [7] the target is unchanged. Nature of the data set: cell binding assay on FT132 cells (healthy fallopian tube cells), DiR fluorescence at 780 nm, 1 h at 37 C; fit of the SPECIFIC curve; no unit beside the number, concentration axis in nM. The method, then:
as §1, §2

Where no end group is shown, it is not given here. Side-chain parts run from the residue outwards. The star is where a group is joined. DSPE = CCCCCCCCCCCCCCCCCC(=O)OC[C@H](COP(=O)(O)OCCN*)OC(=O)CCCCCCCCCCCCCCCCC; FAM = 5(6)-carboxyfluorescein

T1 sequence (Q15149 whole entry): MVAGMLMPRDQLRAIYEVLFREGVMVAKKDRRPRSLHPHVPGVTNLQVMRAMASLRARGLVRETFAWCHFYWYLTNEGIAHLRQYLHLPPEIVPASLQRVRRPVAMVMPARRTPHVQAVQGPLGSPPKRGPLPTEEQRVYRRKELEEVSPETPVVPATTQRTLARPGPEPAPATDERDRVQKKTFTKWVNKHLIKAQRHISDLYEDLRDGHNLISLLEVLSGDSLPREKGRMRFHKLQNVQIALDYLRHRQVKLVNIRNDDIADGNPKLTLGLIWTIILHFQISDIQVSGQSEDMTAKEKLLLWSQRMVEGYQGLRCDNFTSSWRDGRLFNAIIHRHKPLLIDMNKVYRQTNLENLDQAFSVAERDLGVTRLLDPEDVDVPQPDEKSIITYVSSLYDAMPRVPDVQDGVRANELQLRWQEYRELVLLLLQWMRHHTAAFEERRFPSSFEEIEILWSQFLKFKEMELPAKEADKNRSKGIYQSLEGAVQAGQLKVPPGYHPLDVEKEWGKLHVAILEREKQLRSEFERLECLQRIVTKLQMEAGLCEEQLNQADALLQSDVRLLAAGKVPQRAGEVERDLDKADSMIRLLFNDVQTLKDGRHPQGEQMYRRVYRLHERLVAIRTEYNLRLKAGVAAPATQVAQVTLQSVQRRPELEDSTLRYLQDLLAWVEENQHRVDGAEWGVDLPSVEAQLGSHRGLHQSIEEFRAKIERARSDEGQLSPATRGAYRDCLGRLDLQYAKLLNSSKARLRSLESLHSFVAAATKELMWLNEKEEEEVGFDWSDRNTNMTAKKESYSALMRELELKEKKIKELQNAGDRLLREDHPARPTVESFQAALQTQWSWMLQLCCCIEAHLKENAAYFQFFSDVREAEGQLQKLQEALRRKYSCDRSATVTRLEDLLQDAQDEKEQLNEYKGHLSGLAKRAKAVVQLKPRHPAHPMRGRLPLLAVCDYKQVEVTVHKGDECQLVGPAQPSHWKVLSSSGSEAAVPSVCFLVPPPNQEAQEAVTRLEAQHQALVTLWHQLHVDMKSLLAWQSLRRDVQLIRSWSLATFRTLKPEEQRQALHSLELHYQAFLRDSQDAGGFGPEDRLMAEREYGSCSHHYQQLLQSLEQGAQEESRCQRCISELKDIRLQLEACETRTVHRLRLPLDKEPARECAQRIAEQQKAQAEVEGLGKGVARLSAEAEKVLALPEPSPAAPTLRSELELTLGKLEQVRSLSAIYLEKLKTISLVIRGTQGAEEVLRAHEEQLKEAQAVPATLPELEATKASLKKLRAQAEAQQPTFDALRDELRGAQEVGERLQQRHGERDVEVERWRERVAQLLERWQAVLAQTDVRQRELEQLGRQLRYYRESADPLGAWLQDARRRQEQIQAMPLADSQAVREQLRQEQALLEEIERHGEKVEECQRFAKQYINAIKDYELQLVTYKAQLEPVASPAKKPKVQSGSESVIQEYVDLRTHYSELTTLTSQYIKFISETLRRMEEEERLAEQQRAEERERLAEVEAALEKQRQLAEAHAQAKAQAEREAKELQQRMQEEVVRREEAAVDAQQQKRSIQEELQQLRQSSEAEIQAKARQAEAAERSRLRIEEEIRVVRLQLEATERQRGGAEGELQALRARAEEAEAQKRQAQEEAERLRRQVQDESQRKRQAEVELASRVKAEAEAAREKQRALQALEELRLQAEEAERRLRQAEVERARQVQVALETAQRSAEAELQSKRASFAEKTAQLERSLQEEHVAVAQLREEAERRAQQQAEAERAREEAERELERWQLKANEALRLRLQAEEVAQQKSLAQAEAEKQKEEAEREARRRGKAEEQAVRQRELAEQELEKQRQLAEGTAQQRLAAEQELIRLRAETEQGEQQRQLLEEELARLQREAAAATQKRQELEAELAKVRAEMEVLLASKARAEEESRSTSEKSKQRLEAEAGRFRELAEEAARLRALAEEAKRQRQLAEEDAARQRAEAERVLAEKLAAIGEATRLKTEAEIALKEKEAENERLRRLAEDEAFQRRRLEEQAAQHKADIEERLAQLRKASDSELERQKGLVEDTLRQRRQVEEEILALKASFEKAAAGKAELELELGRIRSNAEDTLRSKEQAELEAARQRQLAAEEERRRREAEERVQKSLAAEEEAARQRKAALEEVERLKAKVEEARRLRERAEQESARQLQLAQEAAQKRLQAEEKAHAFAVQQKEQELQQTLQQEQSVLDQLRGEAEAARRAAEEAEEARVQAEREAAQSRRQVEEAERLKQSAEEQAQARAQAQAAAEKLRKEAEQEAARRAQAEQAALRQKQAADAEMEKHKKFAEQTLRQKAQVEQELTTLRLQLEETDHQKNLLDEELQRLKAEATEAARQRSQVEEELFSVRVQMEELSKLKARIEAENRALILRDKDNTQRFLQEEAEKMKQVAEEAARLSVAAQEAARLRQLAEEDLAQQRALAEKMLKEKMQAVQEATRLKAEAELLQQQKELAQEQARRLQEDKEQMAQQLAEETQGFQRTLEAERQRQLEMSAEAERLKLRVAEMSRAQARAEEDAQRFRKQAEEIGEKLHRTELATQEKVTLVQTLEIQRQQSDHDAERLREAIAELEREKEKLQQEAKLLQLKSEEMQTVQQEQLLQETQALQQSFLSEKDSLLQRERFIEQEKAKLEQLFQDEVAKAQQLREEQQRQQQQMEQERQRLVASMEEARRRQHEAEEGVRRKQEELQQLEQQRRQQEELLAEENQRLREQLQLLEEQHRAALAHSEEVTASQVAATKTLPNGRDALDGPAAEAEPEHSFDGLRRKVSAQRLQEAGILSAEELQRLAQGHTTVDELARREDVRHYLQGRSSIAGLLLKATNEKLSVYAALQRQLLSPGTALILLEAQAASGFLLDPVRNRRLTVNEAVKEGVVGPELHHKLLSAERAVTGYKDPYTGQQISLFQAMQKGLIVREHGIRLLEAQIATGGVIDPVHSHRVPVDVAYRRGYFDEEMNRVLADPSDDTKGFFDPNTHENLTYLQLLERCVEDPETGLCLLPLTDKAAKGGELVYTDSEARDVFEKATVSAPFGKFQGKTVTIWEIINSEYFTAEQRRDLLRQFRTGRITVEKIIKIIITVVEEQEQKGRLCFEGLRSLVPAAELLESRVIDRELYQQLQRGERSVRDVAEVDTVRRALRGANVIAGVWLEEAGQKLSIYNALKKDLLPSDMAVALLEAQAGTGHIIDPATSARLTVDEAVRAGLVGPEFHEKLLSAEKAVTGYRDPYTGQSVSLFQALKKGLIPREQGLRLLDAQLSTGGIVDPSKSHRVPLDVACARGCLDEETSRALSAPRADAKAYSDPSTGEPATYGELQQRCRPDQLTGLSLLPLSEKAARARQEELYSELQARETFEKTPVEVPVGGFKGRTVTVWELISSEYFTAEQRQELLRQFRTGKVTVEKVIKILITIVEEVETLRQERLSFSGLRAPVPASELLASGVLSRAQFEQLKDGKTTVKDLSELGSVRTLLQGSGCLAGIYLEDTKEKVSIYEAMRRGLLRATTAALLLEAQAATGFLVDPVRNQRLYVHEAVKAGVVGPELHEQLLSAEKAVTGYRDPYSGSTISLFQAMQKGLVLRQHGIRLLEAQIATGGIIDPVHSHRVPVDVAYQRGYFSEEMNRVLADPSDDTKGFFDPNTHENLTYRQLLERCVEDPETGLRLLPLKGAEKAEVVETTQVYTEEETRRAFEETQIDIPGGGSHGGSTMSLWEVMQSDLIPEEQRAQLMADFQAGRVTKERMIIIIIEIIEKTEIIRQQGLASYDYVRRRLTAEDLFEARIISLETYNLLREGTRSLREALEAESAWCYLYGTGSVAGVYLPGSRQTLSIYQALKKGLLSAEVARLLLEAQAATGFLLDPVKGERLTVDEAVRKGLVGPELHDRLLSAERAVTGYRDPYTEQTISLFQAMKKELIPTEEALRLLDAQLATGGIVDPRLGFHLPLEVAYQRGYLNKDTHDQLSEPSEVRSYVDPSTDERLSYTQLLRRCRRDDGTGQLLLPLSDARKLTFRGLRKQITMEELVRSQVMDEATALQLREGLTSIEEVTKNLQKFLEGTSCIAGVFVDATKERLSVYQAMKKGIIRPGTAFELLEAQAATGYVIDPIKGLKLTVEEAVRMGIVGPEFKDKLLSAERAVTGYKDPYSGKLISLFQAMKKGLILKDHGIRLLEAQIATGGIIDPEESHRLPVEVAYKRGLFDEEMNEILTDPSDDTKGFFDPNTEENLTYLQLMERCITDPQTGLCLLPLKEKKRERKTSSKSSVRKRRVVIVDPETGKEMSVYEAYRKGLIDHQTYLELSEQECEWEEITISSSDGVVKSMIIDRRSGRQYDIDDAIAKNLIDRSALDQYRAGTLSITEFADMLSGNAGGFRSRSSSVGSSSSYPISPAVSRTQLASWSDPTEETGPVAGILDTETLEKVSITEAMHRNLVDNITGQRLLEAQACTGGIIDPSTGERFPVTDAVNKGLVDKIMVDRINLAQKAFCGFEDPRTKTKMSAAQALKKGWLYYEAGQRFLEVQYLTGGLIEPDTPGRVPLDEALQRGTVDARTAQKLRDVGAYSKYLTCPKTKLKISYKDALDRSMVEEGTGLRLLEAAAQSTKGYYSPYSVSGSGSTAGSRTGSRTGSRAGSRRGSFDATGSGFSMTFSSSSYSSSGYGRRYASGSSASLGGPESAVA

Take `O=C(c1cc(Cc2n[nH]c(=O)c3ccccc23)ccc1F)N1CCN(C(=O)C2CC2)CC1` [Olaparib]: in data set [1], the “patients who developed myelodysplastic syndrome and acute myeloid leukemia” value is “About 2%”. Moreover, the “patients with adverse side effects (neutropenia, thrombocytopenia)” value in data set [1] (doses necessary to achieve PARP inhibition) is “About 10%”.

Consider `CNCc1ccc(-c2[nH]c3cc(F)cc4c3c2CCNC4=O)cc1` [Rucaparib], for which the patients showing benefit in the data set with pancreatic cancer is reported as 36%. On to `COc1cccc2c1C(=O)c1c(O)c3c(c(O)c1C2=O)C[C@@](O)(C(=O)CO)C[C@@H]3O[C@H]1C[C@H](N)[C@H](O)[C@H](C)O1` [doxorubicin], for which the “drug loading previously reported” value in data set [2] is listed as 200 μg drug per mg of lipid.

B1: NCP liposomes (Negative Control Peptide TALPRLNGGSK(FAM)C conjugated to DSPE-PEG3400-Maleimide and displayed on liposomes) (peptide)
peptide: TALPRLNGGSK(FAM)C([maleimide-PEG3400-DSPE])-NH2
modifications: also: displayed on liposomes
notes: Control peptide, tested only as a display on liposomes
With B1, the binding result in data set [3] was “no binding (tested: 0.3 nM)”; in data set [4], “no binding”.

B2: PTP liposomes (Plectin Targeting Peptide KTLLPTPGGSK(FAM)C conjugated to DSPE-PEG3400-Maleimide and displayed on DOPC/cholesterol/DSPE-PEG2000/DiR liposomes) (peptide)
peptide: KTLLPTPGGSK(FAM)C([maleimide-PEG3400-DSPE])-NH2
modifications: also: displayed on liposomes
notes: Tested only as a multivalent display on liposomes (about 110-120 nm), not as free peptide; also called Plectin Targeted Peptide; PTP-PEG3400-DSPE
On to B2, for which the Kd in data set [5] worked out at 0.12 nM; in data set [6] it was 0.11 nM; in data set [7], 0.06 nM.
